Data from the nanobody polyreactivity screen of Harvey et al. (2022).

Experiment: yeast display, Sf9 membrane polyspecificity reagent, FACS + sequencing; frameworks hold sequencing errors
Procedure, shortened: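 Galactose-induced (36–48 hours) yeast carrying a synthetic nanobody display library were exposed to 10% biotinylated, detergent-solubilized Sf9 membrane reagent at 4 °C for 1 hour. FACS followed streptavidin microbead enrichment, using low and high (top ~1%) gates for expression (anti-HA) and reagent binding (streptavidin). Colony PCR, MiSeq 2 × 250 sequencing and CDR-length filtering followed. Labels for polyreactivity reflect the gate of origin.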

Sequence | polyreactivity (PSR sort gate)
QVQLVESGGGLLQAGGSLRLSCAASGRTFWWNAMGWYRQAPGKERELVAVISYSGGSTYYADSVKGRFTISRDNAKNTVYLQMNSLKPEDTAVYYCAADLYSHTGYYWGQGTQVTVSS | high polyreactivity
QVQHVESGGGLVQAGGSLRLSCAASGFIFPYYAMGWYRQAPGKERELVAAINSGTSTYYADSVKGRFTISRDNAKNTVYLQMNSLKPEDTAVYYCAAAYPLWYEYDYWGQGTQVTVSS | low polyreactivity
QVQLVESGGGLVQAGGSLSLICAAYGTTFEYYAMRWYRQAPGKERELVATISIDGRTNYADSVKGRFTISRDNAKNTVYLQMISLKPEDTAVYYCAARPYWRHRYDYWGQGTQVTVSS | low polyreactivity
QVQLVESGGGLVQAGGSLRLSCAASGFTFDWYAMGWYRPAPGTERELVAAISTRGTSTYYADSVKGRFTISRDNAKNTVYLQMNSLKPEDTAVYYCAKRSYHGGDYWGQGTQVTVSS | high polyreactivity
QVQLVESGGGLVQAGGSGRLSCAASGSIFFAYGMGWYRQATGTERELVAAIPNSGTSTYYADSVKGRFTISRDNAKNSDYLQMNSLKPEDTAVFYCARDNEPDYYSYPYDYWGEGTQVTVSS | low polyreactivity
QVQLVETGGGLVQAGGSLRLSCAASGSTFVSNAMGWYSQAPGKERELVAAISYIGGGTYYADSEKGRFTISRDNAKNTVYLQMNSLKPEDTAVYYCAAGTPYDLDDYCGQGTQVTVSS | low polyreactivity
QVQLVESGGGLGQAGGSLRLSCAASGRIFFGNARGWYRQAPGKEREFVAAISLTGVTTSYADSVKGRFTISRDNAKNTVYLQMNSLKPEDTAVYYCARDYSYYTHAYDYWGQGTQVTVSS | low polyreactivity
QVHLVESGGGLVQAGGSLRLSCPASGRIFAIYAAMGWTRQAPGKERELVAAISSGDNTNYADSVKGRFTISRDNAKNTVYLQLNSLKPDDTAVYYCNTNYGPTHRARYYYWGQGTQVTVSS | low polyreactivity
QVQLVESGGGLVQARGSLRLSCAASGSTFGLYAMGWYRQAPGKERELVAAISYSGSSTYYADSVKGRFTISRDNAKNTVYLQMNSLKPEDTAVYYCAARRSEHGYNYWGQGTQVTVSS | high polyreactivity
QVQLVESGGGLVQAGGSLRLSCAASGRTYYDYAKGCYRQAPGKEREFVSAITDRDASTSYADSVKGRFTISRDNAKTTVYLQMNSLKPYDTAVYYCAADEYWYKPYVGELYAYVYWGEGTQVTVSS | low polyreactivity
QVQLVESGGGLVQAGGSLRLSCAASGRIFPWYAMGWYRQAPGRVREFLAVISRSGGSTYYADSVKGRFTISRDNAKNTVYLQMNSLKPEDTAVYYCAADGKFEYDYWGQGTQVTVSS | low polyreactivity
QVQLVESGGGLVQAGGSLRLSCAASGFTFGYYSMGWYSQAPGKERELVAAISSGGNTNYADSVKGRFTISRDNAKNTVYLQMNSLKPEDTAVYYCNSRSWRYYKTYSAFNYWGQGTQVTVSS | high polyreactivity
QVQLVESGGGLVQAGGSLRLSCAASGFIFQGYVMGWYRQAPGKEREFVAAISRSGGTTFYADSVKGRFTISRDNAKNTVYLQMNSLKPEDTAVYYCNRARLGRPGYDYWGQGTQVTVSS | high polyreactivity
QVQLVESGGGLVQAGGSLRLSCAASGRISNDYAMGWYRQAPGKERELVATITFSGGDTYYADSVKGRFTISRDNAKNTVYLQMNSLKPEDTAVYYCAASKWRSFSGGWWRLLFDYWGQGTQVTVSS | low polyreactivity
QVQLVESGGGLVQAGGSLRLSCAASGLTFRPYTMGWYRQAPGKERELVAAISARGGRTYYADSVKGRFTISRDNAKNTVYLQMNSLKPEDTAVYYCATLETTGVNYWGQGTQVTVSS | high polyreactivity
QVQLVESGGGLVQAGGSLRLTCAASGRIFGTNAMGWYRQAPGKERELVADITSGGSTNYADSVKGRFTISRDNAKNTVYLLMNSLKPEDTAVYYCAADVIGDLRWYRDEYWGQGTQVTVSS | low polyreactivity
QVQLVESGGGLVQAGGSLRLSCSASGSIIYANAMGWYRPAPGKEREFVATITDSGAITYYADSVKGRFTISRDNAKNTVYLQMNSLKPEDTAVYYCNKDLVVYYVPTHDYDYWGQGTQVTVSS | low polyreactivity
QVQLVESGGGLVQAGGSLRLRCAASGRTFHAYVMGWYIQAPVKERELVADISSGGDTYADSVKGRFTISRDNAKNTVYLQMNSLKPEDTAVYYCAVDLIQDESGYWGQGTQVTVSS | low polyreactivity
QVQLVESGGGLVQAGGSLRLSCAASGGTVTYNAMGWYRQAPGKERELVAAITNGGGSTYYADSVKGRFTISRDYAKNTVYLQMNSLKPEDTAVYYCAARWWYYYTEYDYWGQGTQVTVSS | low polyreactivity
QVQLVESGGGLVQAGGSLRISCAASGSTLFNYAMGWYRQAPGKERELVAAIDWGDGTTYYADSVKGRFTISRDNAKNTVYLQMNSLQPEDTAVYYCAAEEFYSPYDYWGQGTQVTVSS | high polyreactivity
QVQRVESGGGLVQAGGSLRLSCAASGYTFYFYDMGWYRQAPGKERELVAAITSSGGSTYYADSVKGRFTISRDNAKNTVYLQMNSLKPEDTAVYYCNALITYSSDYWGQGTQVTVSS | low polyreactivity

Sequence | polyreactivity (PSR sort gate)
QVQLLESGGGLVKAGGSLRLSCAPYGSIFYGYAMGWYRPAPGKERELVAAITRSGGSTYYADSVKGRFTITRFNAKNTVYLQMNSLKPEDTAVYYCAAGWRSVSVRYYGPSDYWGQGTQVTVSS | low polyreactivity
QVQLVESGGGLVQPGGSLRLSCAASGFIFPSYDMGWYIQAPGKERELVAAITSDVNSYYADSVKGRFTISRDNAKNTVYLQMTSLKPEDTAFYSCNADADDYRDYQDYDYWGQGTQVTVSS | low polyreactivity
QVQLVESGGGLVQAGGSLRLSCAASGSIFGRNDMGWYRQAPGKERELVAAISGDTTTNYADSVKGRFTISRDNAKNTVYLQMNSLKPEDTAVYYCAAKYGYRRGTVRGYTRVYYWGQGTQVTVSS | high polyreactivity
QVQLVESGGGLVQAGGSLRLSCAASGFTFSRYAMGWYRQAPGKERELVAAITASGGTTYYADSVKGRFTISRDNAKNTVYLQMNSLKAEDTAVYYCNALYYYLYGYDYWGQGTQVTVSS | high polyreactivity
QVKLEESGGGLVQAGGSLRLSCAASGRTFTTYSMGCYRQAPGKERELVAAISGSGGSTYYADSVKGRFTISRDNAKNSVYVQMNSLKPEDTAVYYCATAYYYHGGYYYPYDDYWGQGTQVTVSS | low polyreactivity
QVQLVESGGGLVQAGGSLRLSCAASGITFYDNVMGWYRQAPGKERELVAAITSGGSTNYADSVKGRFTISRDNAKNTVYLQMNSLKPEDTAVYYCAAQPRVDYEFPYRYGYWGQGTQVTVSS | low polyreactivity
QVQLVESGGGLVQSGGSLRLSCAASGSTLYFKAMGWYRQAPGKERDLVAAITYDGGSTYYADSVKGRFTISRDNAKNTVYLQMNSLKPEDTAVYYCAGRTDGYRNNYWGQGTQVTVSS | high polyreactivity
QVQLVESGGGLVQAGGSLRLSCAASGFIFDYNAMGWYRQAPGKERELVAAISWSGSRTYYAVSVKGRFTISRDNAKNTVYLQMNSLKPEDTAVYYCAAEWSGEAAWQVGAEDDYWGQGTQVTVSS | low polyreactivity
QVQLVESGGGLVQAGGSLRLSCAASGFIFTDNAMGWYRQAPGKESEFVAAITYSGGSTYYADSVKGRFTISRDNAKNTVYLQMNSLKPEDTAVYYCNKDFFPAPVVVTAYEYEYWGQGSQVTVSS | low polyreactivity
LVQLVESGGGLVQAGGSLRLSGAASGSPFRQNAMGWYRQAPGKERELVAAITWRGDNTYYADSVKGRFTISRDNAKKPVYFQRNSLKPDDTAVDYCAARWSYRLYWGYGYWGQGTEVTVSS | low polyreactivity
QVQLVESGGGLVQAGGSLRLSCAASGRTFRSYAMGWYRQAPGKERELVAAITRTGSTYYADSVKGRFTISRDNAKNTVYLQMNSLKPEDTAVYYCAARFVYGYDYWGQGTEVTVSS | high polyreactivity
QVQLVESGGGLVQAGGSLRLSCAASGSIFAKYAMGWYRQAPGKERELVAAITGSGGSTYYADSVKGRFTISRDNAKNTVYLQMNSVKPEDTAVYYCAKRRPRYTYNYWGQGTQVTVSS | high polyreactivity
QVQLVESGGGLDQAGGSLRLSCAASGSIFVRNAMGWYRQAPGKERELVASISRRGGSTYYADSVKGRFTISRDNAKNTVYLQMNSLKPEDTAVYYCAAVVRRAPEFDYWGQGTQVTVSS | high polyreactivity
QVQIVESGGGLVQAGGSLRLSCAASGITFLWNVMGWYRQAPGKERELVATITSIGGITNYADSVKGRFTISRDNAKNSVYLQMNSLKTEDSAFYYCATQIVSGSRVDRNDYWGQGTQVTVSS | low polyreactivity
QVQLVESGGGIVQAGGSLRLSCAASGPTFYLYDTMGWYRQAPGKERELVAAISWDDGDTYYADSVKGRFTISRDNAKNTVYLQMNSLKPEDTAVYYCAAESLSGAHGYWGQGTQVTVSS | low polyreactivity
QVQHVESGGGLVQAGGSHRLSCAASGSTFTYYAMGWYRQAPGKERELVAAISRGGSTYYADSVKGRFTISRDNAKNTVYLKKYSLKPEDTAVYYCAAERGYKKWSRGYWGQGTLVTVSS | high polyreactivity
QVQLVETGGGLVQAGGTLRLSCAASGSTFNAYAKGWYIQAPGKERELVAVISSSGGRTYYADSEKGRFTISRDNAKNTVYLQLNSLKPEDTAVYYCNADVKYLYNHWGQGTQVTVSS | high polyreactivity
QFQLVESGVGLVQAGGSLRFSCAASGRIFMPNAMGWYRQSPGKEREFVASISWSGGSTYYADSVKGRFTISRDNAKTTDYLQMNSLKPEDTAVYYCNARYGKRYYYWGQGTQVTVSS | low polyreactivity
QVQLVESGGGLVQAGGSLRLSCAASGLTFVYNAMGWYRQAPGKERELVADISYDGGGTYYADSVKGRFTISRDNAMNTVYLQMNSLKPEDTAVYYCAKRAFGSQGEISYTPPGYDSWGQGTQVTVSS | low polyreactivity
QVQLVESGGGLVQAGGSLRLSCASSGSIFFEYAMVWYRQAPGKERELDASINRGGGSTYYADSVKGRFTISRDNAKNTVYLQMNSLKPEDTAVYYCAAQWKYRQSYLDYYWGQGTQVTVSS | low polyreactivity
